From publication PMC6509359 (Molecular Cell, 2019)
Positions count from the first letter of the chain named. Names may count otherwise.

B1: Chimera: Human USP28 (149-[AIM of Human USP25]-703) (domain or fragment)
chain: PNPNDWRRVDGWPVGLKNVGNTCWFSAVIQSLFQLPEFRRLVLSYSLPQNVLENCRSHTEKRNIMFMQELQYLFALMMGSNRKFVDPSAALDLLKGAFRSSEEQQQDVSEFTHKLLDWLEDAFQLAVNVNSPRNKSENPMVQLFYGTFLTEGVREGKPFCNNETFGQYPLQVNGYRNLDECLEGAMVEGDVELLPSDHSVKYGQERWFTKLPPVLTFELSRFEFNQSLGQPEKIHNKLEFPQIIYMDRYMYRSKELIRNKRECIRKLKEEIKILQQKLERYVKYGSGPARFPLPDMLKYVIEFASTKPASESCPPESDTHMTLPLSSVHCSVSDQTSKESTSTESSSQDVESTFSSPEDRSVIHKPFTQSRIPMEMPSQPAPRTVTDEEINFVKTCLQRWRSEIEQDIQDLKTCIASTTQTIEQMYCDPLLRQVPYRLHAVLVHEGQANAGHYWAYIYNQPRQSWLKYNDISVTESSWEEVERDSYGGLRNVSAYCLMYINDKLPYFNAEAAPTESDQMSEVEALSVELKHYIQEDNWRFEQEVEEWEEEQSCKI
B2: Human USP28 (1-703) (domain or fragment, UniProt Q96RU2 1-703, looked up)
chain: MTAELQQDDAAGAADGHGSSCQMLLNQLREITGIQDPSFLHEALKASNGDITQAVSLLTDERVKEPSQDTVATEPSEVEGSAANKEVLAKVIDLTHDNKDDLQAAIALSLLESPKIQADGRDLNRMHEATSAETKRSKRKRCEVWGENPNPNDWRRVDGWPVGLKNVGNTCWFSAVIQSLFQLPEFRRLVLSYSLPQNVLENCRSHTEKRNIMFMQELQYLFALMMGSNRKFVDPSAALDLLKGAFRSSEEQQQDVSEFTHKLLDWLEDAFQLAVNVNSPRNKSENPMVQLFYGTFLTEGVREGKPFCNNETFGQYPLQVNGYRNLDECLEGAMVEGDVELLPSDHSVKYGQERWFTKLPPVLTFELSRFEFNQSLGQPEKIHNKLEFPQIIYMDRYMYRSKELIRNKRECIRKLKEEIKILQQKLERYVKYGSGPARFPLPDMLKYVIEFASTKPASESCPPESDTHMTLPLSSVHCSVSDQTSKESTSTESSSQDVESTFSSPEDSLPKSKPLTSSRSSMEMPSQPAPRTVTDEEINFVKTCLQRWRSEIEQDIQDLKTCIASTTQTIEQMYCDPLLRQVPYRLHAVLVHEGQANAGHYWAYIYNQPRQSWLKYNDISVTESSWEEVERDSYGGLRNVSAYCLMYINDKLPYFNAEAAPTESDQMSEVEALSVELKHYIQEDNWRFEQEVEEWEEEQSCKI
notes: USP28, human, residues 1-703; source: E. coli Rosetta2(DE3)pLacI, purified (HisTrap, 3C protease, Resource Q, size exclusion)
B3: Human USP28 (149-703) L415E I419E (domain or fragment, UniProt Q96RU2 149-703, looked up)
chain: PNPNDWRRVDGWPVGLKNVGNTCWFSAVIQSLFQLPEFRRLVLSYSLPQNVLENCRSHTEKRNIMFMQELQYLFALMMGSNRKFVDPSAALDLLKGAFRSSEEQQQDVSEFTHKLLDWLEDAFQLAVNVNSPRNKSENPMVQLFYGTFLTEGVREGKPFCNNETFGQYPLQVNGYRNLDECLEGAMVEGDVELLPSDHSVKYGQERWFTKLPPVLTFELSRFEFNQSLGQPEKIHNKLEFPQIIYMDRYMYRSKELIRNKRECIRKEKEEEKILQQKLERYVKYGSGPARFPLPDMLKYVIEFASTKPASESCPPESDTHMTLPLSSVHCSVSDQTSKESTSTESSSQDVESTFSSPEDSLPKSKPLTSSRSSMEMPSQPAPRTVTDEEINFVKTCLQRWRSEIEQDIQDLKTCIASTTQTIEQMYCDPLLRQVPYRLHAVLVHEGQANAGHYWAYIYNQPRQSWLKYNDISVTESSWEEVERDSYGGLRNVSAYCLMYINDKLPYFNAEAAPTESDQMSEVEALSVELKHYIQEDNWRFEQEVEEWEEEQSCKI
notes: also called variant with the insertion-destabilizing mutation; source: E. coli Rosetta2(DE3)pLacI, purified (HisTrap, 3C protease, Resource Q, size exclusion)
B4: Human USP25 (157-714) P521S F522E (domain or fragment, UniProt Q9UHP3 157-714, looked up)
chain: NPYDRKRQDKAPVGLKNVGNTCWFSAVIQSLFNLLEFRRLVLNYKPPSNAQDLPRNQKEHRNLPFMRELRYLFALLVGTKRKYVDPSRAVEILKDAFKSNDSQQQDVSEFTHKLLDWLEDAFQMKAEEETDEEKPKNPMVELFYGRFLAVGVLEGKKFENTEMFGQYPLQVNGFKDLHECLEAAMIEGEIESLHSENSGKSGQEHWFTELPPVLTFELSRFEFNQALGRPEKIHNKLEFPQVLYLDRYMHRNREITRIKREEIKRLKDYLTVLQQRLERYLSYGSGPKRFPLVDVLQYALEFASSKPVCTSPVDDIDASSPPSGSIPSQTLPSTTEQQGALSSELPSTSPSSVAAISSRSVIHKSETQSRIPPDLPMHPAPRHITEEELSVLESCLHRWRTEIENDTRDLQESISRIHRTIELMYSDKSMIQVPYRLHAVLVHEGQANAGHYWAYIFDHRESRWMKYNDIAVTKSSWEELVRDSFGGYRNASAYCLMYINDKAQFLIQEEFNKETGQPLVGIETLPPDLRDFVEEDNQRFEKELEEWDAQLAQKALQE
notes: source: E. coli Rosetta2(DE3)pLacI, purified (HisTrap, 3C protease, Resource Q, size exclusion)
B5: Human USP25 (157-714) Q524S (domain or fragment, UniProt Q9UHP3 157-714, looked up)
chain: B4 chain with S365P, E366F, Q368S
notes: as for B4
B6: Human USP25 (157-714) F522L (domain or fragment, UniProt Q9UHP3 157-714, looked up)
chain: B4 chain with S365P, E366L
notes: as for B4
B7: Human USP25 (157-714) P521A (domain or fragment, UniProt Q9UHP3 157-714, looked up)
chain: B4 chain with S365A, E366F
notes: as for B4
B8: Human USP25 (157-714) F522A (domain or fragment, UniProt Q9UHP3 157-714, looked up)
chain: B4 chain with S365P, E366A
notes: as for B4
B9: Human USP28 (1-1077) (enzyme, UniProt Q96RU2 1-1077, looked up)
chain: MTAELQQDDAAGAADGHGSSCQMLLNQLREITGIQDPSFLHEALKASNGDITQAVSLLTDERVKEPSQDTVATEPSEVEGSAANKEVLAKVIDLTHDNKDDLQAAIALSLLESPKIQADGRDLNRMHEATSAETKRSKRKRCEVWGENPNPNDWRRVDGWPVGLKNVGNTCWFSAVIQSLFQLPEFRRLVLSYSLPQNVLENCRSHTEKRNIMFMQELQYLFALMMGSNRKFVDPSAALDLLKGAFRSSEEQQQDVSEFTHKLLDWLEDAFQLAVNVNSPRNKSENPMVQLFYGTFLTEGVREGKPFCNNETFGQYPLQVNGYRNLDECLEGAMVEGDVELLPSDHSVKYGQERWFTKLPPVLTFELSRFEFNQSLGQPEKIHNKLEFPQIIYMDRYMYRSKELIRNKRECIRKLKEEIKILQQKLERYVKYGSGPARFPLPDMLKYVIEFASTKPASESCPPESDTHMTLPLSSVHCSVSDQTSKESTSTESSSQDVESTFSSPEDSLPKSKPLTSSRSSMEMPSQPAPRTVTDEEINFVKTCLQRWRSEIEQDIQDLKTCIASTTQTIEQMYCDPLLRQVPYRLHAVLVHEGQANAGHYWAYIYNQPRQSWLKYNDISVTESSWEEVERDSYGGLRNVSAYCLMYINDKLPYFNAEAAPTESDQMSEVEALSVELKHYIQEDNWRFEQEVEEWEEEQSCKIPQMESSTNSSSQDYSTSQEPSVASSHGVRCLSSEHAVIVKEQTAQAIANTARAYEKSGVEAALSEVMLSPAMQGVILAIAKARQTFDRDGSEAGLIKAFHEEYSRLYQLAKETPTSHSDPRLQHVLVYFFQNEAPKRVVERTLLEQFADKNLSYDERSISIMKVAQAKLKEIGPDDMNMEEYKKWHEDYSLFRKVSVYLLTGLELYQKGKYQEALSYLVYAYQSNAALLMKGPRRGVKESVIALYRRKCLLELNAKAASLFETNDDHSVTEGINVMNELIIPCIHLIINNDISKDDLDAIEVMRNHWCSYLGQDIAENLQLCLGEFLPRLLDPSAEIIVLKEPPTIRPNSPYDLCSRFAAVMESIQGVSTVTVK
notes: USP28, human, residues 1-1077 (1,077 aa); also called full-length USP28; source: E. coli Rosetta2(DE3)pLacI, purified (HisTrap, 3C protease, Resource Q, size exclusion)

Biological target: the molecule itself
Test: SEC-MALS; 100 μL of 1-2 mg/mL protein on Superdex 200 10/300, 0.5 mL/min, PBS + 2 mM DTT

Row | Protein | stoichiometry N
1 | B1 | 2
2 | B2 | 2
3 | B3 | 2
4 | B4 | 2
5 | B5 | 2
6 | B6 | 2
7 | B7 | 2
8 | B8 | 2
9 | B9 | 2
